The values that follow come from patent US20250376535A1 (BEIJING STARMAB BIOMED TECHNOLOGY, published 2025).

Assay [1] addresses T1, recombinant human OX40-Fc (human, UniProt P43489 29-214).
T1 construct: also called rh-OX40-Fc; human OX40 hFC (R & D systems)
T1 sequence: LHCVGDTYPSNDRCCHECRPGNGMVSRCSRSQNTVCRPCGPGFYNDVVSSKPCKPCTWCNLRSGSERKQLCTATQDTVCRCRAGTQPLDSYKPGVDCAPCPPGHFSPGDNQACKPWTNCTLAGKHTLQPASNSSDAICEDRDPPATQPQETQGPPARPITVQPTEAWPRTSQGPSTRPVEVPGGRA
Nature of the assay: ELISA, OX40-Fc coated, VHH at 0.32 nM.
Description: (§1) After four times washing with PBST, the plate was incubated with detecting antibody anti-his-HRP (1:4000 dilution) 100 μl per well for one hour with shaking at 60 rpm. The plate was developed with 100 μL of TMB per well in the dark and then stopped by 50 μL of stop solution per well. […] Data was analyzed using GraphPad Prisma 9.1.

Assay [2] concerns the target T1, recombinant human OX40-Fc. The experiment in a line: ELISA, OX40-Fc coated, VHH at 40 nM. (In an ELISA, binding on a coated surface is turned into a signal by an enzyme label.)
Description: as §1
The target of assay [3] is T1, recombinant human OX40-Fc. The experiment in a line: ELISA, OX40-Fc coated, VHH at 1000 nM.
Description: as §1
For assay [4], the target named is T1, recombinant human OX40-Fc. Nature of the assay: ELISA, OX40-Fc coated, VHH at 0.064 nM.
Description: as §1
Assay [5] addresses T1, recombinant human OX40-Fc. Nature of the assay: ELISA, OX40-Fc coated, VHH at 0.0128 nM.
Description: as §1
The target in assay [6] is T1, recombinant human OX40-Fc. Nature of the assay: ELISA, OX40-Fc coated, VHH at 1.6 nM.
Description: as §1
Assay [7] concerns the target T1, recombinant human OX40-Fc. The experiment in a line: ELISA, OX40-Fc coated, VHH at 200 nM.
Description: as §1
In assay [8] the target is T1, recombinant human OX40-Fc. The experiment in a line: BLI, VHH-His on anti-His tips, OX40 hFc in solution.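 Further: kinetics recorded at 30 °C in PBS pH 7.2, with 200 s of association followed by dissociation monitored in PBS lacking the OX40 protein.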 In general terms: In BLI a coated tip is dipped into the sample, and binding shifts an interference pattern.
Description: Bio-Layer Interferometry (BLI) kinetic binding analysis. […] Affinity measurements were performed with Gator equipped with Anti-Penta-His capture (HIS1K) biosensor tips. The assay was performed at 30° C. in 1×PBS buffer (Gibco®, PBS pH7.2). Samples were agitated at 1000 rpm. Prior to analysis, sensors were humidified for 15 min. Purified anti-OX40 VHH was tested for its binding capacity with HIS1K sensor tips. Tips were loaded using 20 μg/ml of anti-OX40 VHH. Loading proceeded for 300 s resulting in capture levels of between 1.8 and 2 nm. […] Association was initiated and monitored for 200 sec, after which tips were transferred to 1×PBS buffer without Factor protein (Gibco, PBS pH 7.2), in order to monitor dissociation. Sensor data was collected throughout the experiments, processed, and analyzed using the Gator data analysis software.
The target in assay [9] is T1, recombinant human OX40-Fc. The experiment in a line: ELISA, OX40-Fc coated, VHH at 8 nM.
Description: as §1

B1: pgXX88-60 (VHH, not shown: small tags and cut ends)
VHH: EVQLVESGGGLAQPGGSLRLSCAASGFTFSNYAMGWYRQAPGKEREFVAAIDWSTNALLYGDSVKGRFTISRDNAKNTVFLQMSGLKPEDTALYYCAADRAYHTVVLGPPEGMDYWGKGTQVTVSS
As for B1, the OD450 in assay [1] was determined as 0.596; in [2], 0.718; in assay [3], 0.713; in assay [4], 0.284; in assay [5], 0.057; in assay [6], 0.641. Besides, the OD450 in [7] is 0.61; in [9] it was 0.668. Moreover, the Kd in assay [8] was below 1 pM. In addition, in [8], the koff stood at 1e-06 s⁻¹. Further, the on-rate constant (kon) in assay [8] worked out at 464000 M⁻¹ s⁻¹.

B2: pgXX88-81 (VHH, not shown: small tags and cut ends)
VHH: EVQLVESGGGLAQPGSSLRLSCTASGTVFSILSATWFRQAPGKAHEARELVAFISSDGVSMHADSVKGRFTISRDNAKSTVYLQMDNLQPEDTAAYYCKLSNSMMGMEYWGRGTQVTVSS
For B2, the OD450 in [1] came out at 0.617; in [2], 0.75; in [3], 0.772; in assay [4] it was 0.262; in [5], 0.06; in assay [6] it was 0.743. Also, the OD450 in assay [7] turned out to be 0.666; in assay [9], 0.772. For the same molecule, in assay [8], the Kd is below 1 pM. Besides, the koff in assay [8] was 1e-06 s⁻¹. In addition, the on-rate constant (kon) in assay [8] was found to be 549000 M⁻¹ s⁻¹.

B3: pgXX88-84 (VHH, not shown: small tags and cut ends)
VHH: EVQLVESGGRLVQAGDSLKLSCTASGRTFSDYVMGWFRQVPGEGRLMVAVITPAGDTTEYADAVKGRFSISKDSAKRTVNLQMNNLKVDDTAVYYCAAGPSWIGMQFGTAEYWGQGTQVTVSS
Turning to B3, the OD450 amounted to 0.175 in assay [1]; 0.324 in assay [2]; 0.34 in assay [3]; 0.085 in assay [4]; 0.057 in [5]; 0.29 in [6]. The results for the OD450 in assay [7] and in [9] were 0.296 and 0.31, respectively. In addition, in assay [8], the Kd was below 1 pM. Besides, the off-rate constant (koff) in assay [8] is 1e-06 s⁻¹. The kon in assay [8] amounted to 494000 M⁻¹ s⁻¹.

B4: pgXX88-2 (VHH, not shown: small tags and cut ends)
VHH: EVQLVESGGGLVQPGGSLRLSCAASGFAFGDIPMMWVRQAPGKGREWVSSISADSATQSYADSVQDRFTISRDNAKNTLYLEMHILKPEDTAVYYCATTDRPPPGQGTQVTVSS
For the molecule B4, the OD450 is 0.719 in [1]; 1.63 in [2]; 1.67 in assay [3]; 0.183 in assay [4]; 0.077 in [5]; 1.46 in [6]. For the same molecule, the OD450 in assay [7] was 1.66; in [9] it was 1.63. Besides, the Kd in assay [8] came out at 485 pM. For the same molecule, the koff in assay [8] stood at 0.00023 s⁻¹. Moreover, in [8], the on-rate constant (kon) worked out at 474000 M⁻¹ s⁻¹.

B5: pgXX88-83 (VHH, not shown: small tags and cut ends)
VHH: EVQLVESGGGLVQTGDSLRLSCAALGGTPSTYAIGWFRQAAGKELQFVARITWNGDTWYADALPGRVAISRDNAKKTVYLQMNNLKPEDTAEYICAADVSEFRDIPNRDSRANYRYWGQGTQVTVSS
Turning to B5, the OD450 is 0.072 in assay [1]; 0.252 in assay [2]; 0.504 in assay [3]; 0.063 in [4]; 0.05 in assay [5]; 0.147 in assay [6]. For the same molecule, the OD450 stood at 0.243 in [7] and 0.183 in assay [9]. Further, the dissociation constant (Kd) in [8] came out at 52.6 pM. For the same molecule, the off-rate (koff) in assay [8] came out at 2.42e-05 s⁻¹. Besides, the kon in assay [8] stood at 460000 M⁻¹ s⁻¹.

In general, Kd refers to the free concentration of one partner at which half of the binding sites on the other are occupied at equilibrium, for simple one-to-one binding. For orientation: koff means the rate constant with which the complex falls apart. The kon is the second-order rate constant of association.
